These results are taken from publication PMC6033355.

In assay [1] the target is HD_(N-TIMP2,V3) bi-specific heterodimer (N-TIMP2 fused by a linker to V3, the engineered soluble extracellular domain of the IL-17A receptor, with human IgG1 Fc and 6xHis). Briefly: BLI; Octet Red; HD_(N-TIMP2,V3) or V3 loaded on Protein A sensors (10 ug/ml, 300 s); IL-17A or MMP-9CAT in solution at 50, 100, 200 nM; 300 s association, 1800-2500 s dissociation; 30 C; PBS, 1% BSA, 0.05% Tween; 1:1 binding model. On the technique in general: Biolayer interferometry detects binding as a change in optical thickness at a sensor tip.

Assay [2] addresses V3, soluble IL-17RA (extracellular domain of the IL-17A receptor with point mutations that increase affinity for IL-17A). Described as above.
The target in assay [3] is MMP-9 catalytic domain (Homo sapiens) (UniProt P14780). The note with it: cited from earlier work.
Chain of MMP-9 catalytic domain (Homo sapiens) (P14780 107-443): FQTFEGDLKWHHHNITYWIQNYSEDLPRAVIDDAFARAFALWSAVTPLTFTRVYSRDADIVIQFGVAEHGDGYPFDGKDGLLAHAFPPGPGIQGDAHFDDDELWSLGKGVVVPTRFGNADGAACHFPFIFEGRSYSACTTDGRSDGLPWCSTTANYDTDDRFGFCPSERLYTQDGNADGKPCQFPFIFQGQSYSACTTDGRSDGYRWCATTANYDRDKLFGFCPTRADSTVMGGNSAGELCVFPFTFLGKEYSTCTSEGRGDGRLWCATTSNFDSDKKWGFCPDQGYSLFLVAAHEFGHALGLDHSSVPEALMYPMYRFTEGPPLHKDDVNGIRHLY

Chain of IL-17A (interleukin-17A) (Q16552 24-155): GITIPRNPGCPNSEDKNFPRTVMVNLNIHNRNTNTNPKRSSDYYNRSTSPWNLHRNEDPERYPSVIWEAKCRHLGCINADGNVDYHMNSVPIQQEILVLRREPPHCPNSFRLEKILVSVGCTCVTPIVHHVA
Chain of N-TIMP2 N-terminal domain (P16035 27-153): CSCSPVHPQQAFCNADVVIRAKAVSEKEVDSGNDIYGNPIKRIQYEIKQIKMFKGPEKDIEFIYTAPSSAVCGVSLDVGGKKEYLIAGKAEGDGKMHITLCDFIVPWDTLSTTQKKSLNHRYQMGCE

As a reminder, the Kd is the free concentration of one partner at which half of the binding sites on the other are occupied at equilibrium, for simple one-to-one binding. With “IL-17A (interleukin-17A) (from UniProt Q16552 24-155) (ligand)”, the figures for the Kd in assay [1] and in assay [2] were 48 pM and 122 pM, respectively.
The term Ki denotes a dissociation constant, usually derived from enzyme kinetics or from competition with a known ligand. For the substance “N-TIMP2 N-terminal domain (from UniProt P16035)”, in assay [3], the Ki is 100 pM.
